From patent EP2495257A2 (Abbott Laboratories, dated 2012)

Assays:
human IL-18 [1] = molecular target: T1, human IL-18 (human, UniProt Q14116 37-193); test: cell-based or functional assay
human IL-18 [2] = molecular target: T1, human IL-18; test: SPR (Biacore)
human IL-12 = molecular target: T2, human IL-12 (human, UniProt P29459 23-219; P29460 23-328); test: cell-based or functional assay
T2 sequence (looked up) 1: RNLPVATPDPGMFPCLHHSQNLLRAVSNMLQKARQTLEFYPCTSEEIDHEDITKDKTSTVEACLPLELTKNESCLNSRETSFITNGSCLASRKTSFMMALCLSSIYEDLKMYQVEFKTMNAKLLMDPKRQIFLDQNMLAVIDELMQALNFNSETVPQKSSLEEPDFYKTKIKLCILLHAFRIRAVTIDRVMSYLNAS
T2 sequence (looked up) 2: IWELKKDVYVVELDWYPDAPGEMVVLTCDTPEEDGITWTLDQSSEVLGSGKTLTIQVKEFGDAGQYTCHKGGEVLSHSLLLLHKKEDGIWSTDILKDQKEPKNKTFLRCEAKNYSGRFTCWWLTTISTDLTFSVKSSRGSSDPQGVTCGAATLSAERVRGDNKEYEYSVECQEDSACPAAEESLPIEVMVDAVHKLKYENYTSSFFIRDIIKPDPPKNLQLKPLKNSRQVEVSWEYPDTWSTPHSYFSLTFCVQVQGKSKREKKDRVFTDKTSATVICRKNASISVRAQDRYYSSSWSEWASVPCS

B1: DVD1812LL (anti-IL-18/IL-12 DVD-Ig, 18-12-C, long linker) (bispecific antibody, human IgG1, kappa)
heavy: not shown
light: EIVMTQSPATLSVSPGERATLSCRASESISSNLAWYQQKPGQAPRLFIYTASTRATDIPARFSGSGSGTEFTLTISSLQSEDFAVYYCQQYNNWPSITFGQGTRLEIKRTVAAPSVFIFPPQSVLTQPPSVSGAPGQRVTISCSGSRSNIGSNTVKWYQQLPGTAPKLLIYYNDQRPSGVPDRFSGSKSGTSASLAITGLQAEDEADYYCQSYDRYTHPALLFGTGTKVTVLGTVAAPSVFIFPPSDEQLKSGTASVVCLLNNFYPREAKVQWKVDNALQSGNSQESVTEQDSKDSTYSLSSTLTLSKADYEKHKVYACEVTHQGLSSPVTKSFNRGEC
With B1 the “Potency (IC50, M), KG-1 bioassay” value (human IL-18 [1]) was 7.8e-11 M.

B2: DVD1812SL (anti-IL-18/IL-12 DVD-Ig, 18-12-C, short linker) (bispecific antibody, human IgG1, kappa)
heavy: not shown
light: EIVMTQSPATLSVSPGERATLSCRASESISSNLAWYQQKPGQAPRLFIYTASTRATDIPARFSGSGSGTEFTLTISSLQSEDFAVYYCQQYNNWPSITFGQGTRLEIKRTVAAPQSVLTQPPSVSGAPGQRVTISCSGSRSNIGSNTVKWYQQLPGTAPKLLIYYNDQRPSGVPDRFSGSKSGTSASLAITGLQAEDEADYYCQSYDRYTHPALLFGTGTKVTVLGTVAAPSVFIFPPSDEQLKSGTASVVCLLNNFYPREAKVQWKVDNALQSGNSQESVTEQDSKDSTYSLSSTLTLSKADYEKHKVYACEVTHQGLSSPVTKSFNRGEC
notes: also called DVD1812HC-SL / DVD1812LC-SL
With B2 the “Potency (IC50, M), KG-1 bioassay” value (human IL-18 [1]) was 4e-11 M and the Kd (human IL-18 [2]) was 0.11 nM.

B3: ABT-874 (fully human anti-human IL-12p40 mAb) (antibody, V domains shown)
VH: QVQLVESGGGVVQPGRSLRLSCAASGFTFSSYGMHWVRQAPGKGLEWVAFIRYDGSNKYYADSVKGRFTISRDNSKNTLYLQMNSLRAEDTAVYYCKTHGSHDNWGQGTMVTVSS
VL: QSVLTQPPSVSGAPGQRVTISCSGSRSNIGSNTVKWYQQLPGTAPKLLIYYNDQRPSGVPDRFSGSKSGTSASLAITGLQAEDEADYYCQSYDRYTHPALLFGTGTKVTVLG
With B3 the “IC50 (M), IL-12-induced IFN-γ production by PHA blast cells” value (human IL-12) was 5e-12 M.

B4: ABT-325 (fully human anti-human IL-18 mAb) (antibody, V domains shown)
VH: EVQLVQSGTEVKKPGESLKISCKGSGYTVTSYWIGWVRQMPGKGLEWMGFIYPGDSETRYSPTFQGQVTISADKSFNTAFLQWSSLKASDTAMYYCARVGSGWYPYTFDIWGQGTMVTVSS
VL: not shown
With B4 the “IC50 (M), KG-1 bioassay (IL-18-induced IFN-γ production)” value (human IL-18 [1]) was 3e-10 M.
